Assay results reported in the supplement of paper PMC5998384.

Tests used:
HeLa Kyoto [1] = assay: melting temperature (median over replicates), in situ; higher = more thermally stable
HeLa Kyoto [2] = assay: solubility change mitosis vs G1/S (difference of NP-40 vs SDS log2 ratios) (log2 ratio difference); higher = more soluble in mitosis
HeLa Kyoto [3] = assay: solubility in G1/S (NP-40 vs SDS abundance) (log2 ratio); higher = more soluble; settings: cell cycle stage: G1/S
HeLa Kyoto [4] = assay: thermal stability score vs G1/S (z-score of summed log2 fold changes over temperatures); higher = more thermally stable than in G1/S
[5] = cell cycle stage: early G1 (4.5 h after nocodazole release)
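For melting temperature (median over replicates), in situ in this document: HeLa Kyoto cells synchronized by double thymidine or nocodazole block, proteins quantified by TMT10plex mass spectrometry, three independent biological replicates.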
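For solubility change mitosis vs G1/S (difference of NP-40 vs SDS log2 ratios) in this document: synchronized HeLa Kyoto cells (double thymidine block for G1/S, nocodazole release for mitosis), protein amounts in NP-40 versus SDS lysates quantified by mass spectrometry, three biological replicates.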
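For solubility in G1/S (NP-40 vs SDS abundance) in this document: HeLa Kyoto cells arrested at G1/S by double thymidine block, proteins quantified by TMT10plex mass spectrometry in mild NP-40 versus SDS extracts, three biological replicates.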
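For thermal stability score vs G1/S (z-score of summed log2 fold changes over temperatures) in this document: synchronized HeLa Kyoto cells, proteins quantified by TMT10plex mass spectrometry, three biological replicates, mitosis taken 0.5 h after nocodazole release, G1/S directly after double thymidine block.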

Row | Sequence | melting temperature (HeLa Kyoto [1]; cell cycle stage: G1/S) [°C] | melting temperature (HeLa Kyoto [1]; cell cycle stage: mitosis) [°C] | solubility change mitosis (log2) (HeLa Kyoto [2]) | solubility in G1/S (log2) (HeLa Kyoto [3]) | thermal stability score (HeLa Kyoto [4]; [5]) | thermal stability score (HeLa Kyoto [4]; cell cycle stage: mitosis)
1 | MSSSVRRKGKPGKGGGKGSSRGGRGGRSHASKSHGSGGGGGGGGGGGGGNRKASSRIWDDGDDFCIFSESRRPSRPSNSNISKGESRPKWKPKAKVPLQTLHMTSENQEKVKALLRDLQEQDADAGSERGLSGEEEDDEPDCCNDERYWPAGQEPSLVPDLDPLEYAGLASVEPYVPEFTVSPFAVQKLSRYGFNTERCQAVLRMCDGDVGASLEHLLTQCFSETFGERMKISEAVNQISLDECMEQRQEEAFALKSICGEKFIERIQNRVWTIGLELEYLTSRFRKSKPKESTKNVQENSLEICKFYLKGNCKFGSKCRFKHEVPPNQIVGRIERSVDDSHLNAIEDASFLYELEIRFSKDHKYPYQAPLVAFYSTNENLPLACRLHISEFLYDKALTFAETSEPVVYSLITLLEEESEIVKLLTNTHHKYSDPPVNFLPVPSRTRINNPACHKTVIPNNSFVSNQIPEVEKASESEESDEDDGPAPVIVENESYVNLKKKISKRYDWQAKSVHAENGKICKQFRMKQASRQFQSILQERQSLPAWEERETILNLLRKHQVVVISGMTGCGKTTQIPQFILDDSLNGPPEKVANIICTQPRRISAISVAERVAKERAERVGLTVGYQIRLESVKSSATRLLYCTTGVLLRRLEGDTALQGVSHIIVDEVHERTEESDFLLLVLKDIVSQRPGLQVILMSATLNAELFSDYFNSCPVITIPGRTFPVDQFFLEDAIAVTRYVLQDGSPYMRSMKQISKEKLKARRNRTAFEEVEEDLRLSLHLQDQDSVKDAVPDQQLDFKQLLARYKGVSKSVIKTMSIMDFEKVNLELIEALLEWIVDGKHSYPPGAILVFLPGLAEIKMLYEQLQSNSLFNNRRSNRCVIHPLHSSLSSEEQQAVFVKPPAGVTKIIISTNIAETSITIDDVVYVIDSGKMKEKRYDASKGMESLEDTFVSQANALQRKGRAGRVASGVCFHLFTSHHYNHQLLKQQLPEIQRVPLEQLCLRIKILEMFSAHNLQSVFSRLIEPPHTDSLRASKIRLRDLGALTPDERLTPLGYHLASLPVDVRIGKLMLFGSIFRCLDPALTIAASLAFKSPFVSPWDKKEEANQKKLEFAFANSDYLALLQAYKGWQLSTKEGVRASYNYCRQNFLSGRVLQEMASLKRQFTELLSDIGFAREGLRAREIEKRAQGGDGVLDATGEEANSNAENPKLISAMLCAALYPNVVQVKSPEGKFQKTSTGAVRMQPKSAELKFVTKNDGYVHIHPSSVNYQVRHFDSPYLLYHEKIKTSRVFIRDCSMVSVYPLVLFGGGQVNVQLQRGEFVVSLDDGWIRFVAASHQVAELVKELRCELDQLLQDKIKNPSIDLCTCPRGSRIISTIVKLVTTQ [DHX57] | 53 | 51.9 | 0.223 | -0.884 | -0.0848 | -0.271
2 | MSSVAVLTQESFAEHRSGLVPQQIKVATLNSEEESDPPTYKDAFPPLPEKAACLESAQEPAGAWGNKIRPIKASVITQVFHVPLEERKYKDMNQFGEGEQAKICLEIMQRTGAHLELSLAKDQGLSIMVSGKLDAVMKARKDIVARLQTQASATVAIPKEHHRFVIGKNGEKLQDLELKTATKIQIPRPDDPSNQIKITGTKEGIEKARHEVLLISAEQDKRAVERLEVEKAFHPFIAGPYNRLVGEIMQETGTRINIPPPSVNRTEIVFTGEKEQLAQAVARIKKIYEEKKKKTTTIAVEVKKSQHKYVIGPKGNSLQEILERTGVSVEIPPSDSISETVILRGEPEKLGQALTEVYAKANSFTVSSVAAPSWLHRFIIGKKGQNLAKITQQMPKVHIEFTEGEDKITLEGPTEDVNVAQEQIEGMVKDLINRMDYVEINIDHKFHRHLIGKSGANINRIKDQYKVSVRIPPDSEKSNLIRIEGDPQGVQQAKRELLELASRMENERTKDLIIEQRFHRTIIGQKGERIREIRDKFPEVIINFPDPAQKSDIVQLRGPKNEVEKCTKYMQKMVADLVENSYSISVPIFKQFHKNIIGKGGANIKKIREESNTKIDLPAENSNSETIIITGKRANCEAARSRILSIQKDLANIAEVEVSIPAKLHNSLIGTKGRLIRSIMEECGGVHIHFPVEGSGSDTVVIRGPSSDVEKAKKQLLHLAEEKQTKSFTVDIRAKPEYHKFLIGKGGGKIRKVRDSTGARVIFPAAEDKDQDLITIIGKEDAVREAQKELEALIQNLDNVVEDSMLVDPKHHRHFVIRRGQVLREIAEEYGGVMVSFPRSGTQSDKVTLKGAKDCVEAAKKRIQEIIEDLEAQVTLECAIPQKFHRSVMGPKGSRIQQITRDFSVQIKFPDREENAVHSTEPVVQENGDEAGEGREAKDCDPGSPRRCDIIIISGRKEKCEAAKEALEALVPVTIEVEVPFDLHRYVIGQKGSGIRKMMDEFEVNIHVPAPELQSDIIAITGLAANLDRAKAGLLERVKELQAEQEDRALRSFKLSVTVDPKYHPKIIGRKGAVITQIRLEHDVNIQFPDKDDGNQPQDQITITGYEKNTEAARDAILRIVGELEQMVSEDVPLDHRVHARIIGARGKAIRKIMDEFKVDIRFPQSGAPDPNCVTVTGLPENVEEAIDHILNLEEEYLADVVDSEALQVYMKPPAHEEAKAPSRGFVVRDAPWTASSSEKAPDMSSSEEFPSFGAQVAPKTLPWGPKR [HDLBP] | 46.8 | 47.6 | -0.084 | 0.183 | 1.14 | 3.41
3 | MSTAQSLKSVDYEVFGRVQGVCFRMYTEDEARKIGVVGWVKNTSKGTVTGQVQGPEDKVNSMKSWLSKVGSPSSRIDRTNFSNEKTISKLEYSNFSIRY [ACYP2] | 53.7 | 53.4 | -0.0326 | 0.215 | -0.285 | -1.11
4 | MSTAREQPIFSTRAHVFQIDPATKRNWIPAGKHALTVSYFYDATRNVYRIISIGGAKAIINSTVTPNMTFTKTSQKFGQWADSRANTVYGLGFASEQHLTQFAEKFQEVKEAARLAREKSQDGGELTSPALGLASHQVPPSPLVSANGPGEEKLFRSQSADAPGPTERERLKKMLSEGSVGEVQWEAEFFALQDSNNKLAGALREANAAAAQWRQQLEAQRAEAERLRQRVAELEAQAASEVTPTGEKEGLGQGQSLEQLEALVQTKDQEIQTLKSQTGGPREALEAAEREETQQKVQDLETRNAELEHQLRAMERSLEEARAERERARAEVGRAAQLLDVSLFELSELREGLARLAEAAP [HOMER3] | 48.7 | 51.7 | 0.0389 | 0.263 | -1.1 | -1.09
5 | MSTNGDDHQVKDSLEQLRCHFTWELSIDDDEMPDLENRVLDQIEFLDTKYSVGIHNLLAYVKHLKGQNEEALKSLKEAENLMQEEHDNQANVRSLVTWGNFAWMYYHMGRLAEAQTYLDKVENICKKLSNPFRYRMECPEIDCEEGWALLKCGGKNYERAKACFEKVLEVDPENPESSAGYAISAYRLDGFKLATKNHKPFSLLPLRQAVRLNPDNGYIKVLLALKLQDEGQEAEGEKYIEEALANMSSQTYVFRYAAKFYRRKGSVDKALELLKKALQETPTSVLLHHQIGLCYKAQMIQIKEATKGQPRGQNREKLDKMIRSAIFHFESAVEKKPTFEVAHLDLARMYIEAGNHRKAEENFQKLLCMKPVVEETMQDIHFHYGRFQEFQKKSDVNAIIHYLKAIKIEQASLTRDKSINSLKKLVLRKLRRKALDLESLSLLGFVYKLEGNMNEALEYYERALRLAADFENSVRQGP [IFIT1] | 49.1 | 48.3 | -0.063 | 0.322 | 1.47 | 2.07
